This data set relates to Cre recombinase (bacteriophage P1?). Nature of the data set: cell_activity. The conditions noted are these: rice plant crosses; excision confirmed by Southern blot.

As for lox site, the activity (% GUS+ progeny (19/75)) came out at 25.3.
